Measured values from paper PMC6355003 (2019).

B1: Drp1 (dynamin-related protein Drp1), wild type [not stated] / GST-MiD51^133-463, wild type [human] (parent complex)
chain 1: MEALIPVINKLQDVFNTVGADIIQLPQIVVVGTQSSGKSSVLESLVGRDLLPRGTGIVTRRPLILQLVHVSQEDKRKTTGEENGVEAEEWGKFLHTKNKLYTDFDEIRQEIENETERISGNNKGVSPEPIHLKIFSPNVVNLTLVDLPGMTKVPVGDQPKDIELQIRELILRFISNPNSIILAVTAANTDMATSEALKISREVDPDGRRTLAVITKLDLMDAGTDAMDVLMGRVIPVKLGIIGVVNRSQLDINNKKSVTDSIRDEYAFLQKKYPSLANRNGTKYLARTLNRLLMHHIRDCLPELKTRINVLAAQYQSLLNSYGEPVDDKSATLLQLITKFATEYCNTIEGTAKYIETSELCGGARICYIFHETFGRTLESVDPLGGLNTIDILTAIRNATGPRPALFVPEVSFELLVKRQIKRLEEPSLRCVELVHEEMQRIIQHCSNYSTQELLRFPKLHDAIVEVVTCLLRKRLPVTNEMVHNLVAIELAYINTKHPDFADACGLMNNNIEEQRRNRLARELPSAVSRDKVASGGGGVGDGVQEPTTGNWRGMLKTSKAEELLAEEKSKPIPIMPASPQKGHAVNLLDVPVPVARKLSAREQRDCEVIERLIKSYFLIVRKNIQDSVPKAVMHFLVNHVKDTLQSELVGQLYKSSLLDDLLTESEDMAQRRKEAADMLKALQGASQIIAEIRETHLW
chain 2: MSLQEKLLTYYRNRAAIPAGEQARAKQAAVDICAELRSFLRAKLPDMPLRDMYLSGSLYDDLQVVTADHIQLIVPLVLEQNLWSCIPGEDTIMNVPGFFLVRRENPEYFPRGSSYWDRCVVGGYLSPKTVADTFEKVVAGSINWPAIGSLLDYVIRPAPPPEALTLEVQYERDKHLFIDFLPSVTLGDTVLVAKPHRLAQYDNLWRLSLRPAETARLRALDQADSGCRSLCLKILKAICKSTPALGHLTASQLTNVILHLAQEEADWSPDMLADRFLQALRGLISYLEAGVLPSALNPKVNLFAELTPEEIDELGYTLYCSLSEPEVLLQT

Variants of: B1
Test: GST pull-down, SDS-PAGE band quantification; parent: 0.3; read off a plot

| response | Variant |
| --- | --- |
| ~0.42 molar ratio | chain 2 E107R |
| ~0.055 molar ratio | chain 2 F109A |
| ~0.082 molar ratio | chain 2 R102E |
| ~0.082 molar ratio | chain 2 R111E |
| ~0.33 molar ratio | chain 2 S285Q |
| ~0.058 molar ratio | chain 2 Y108A |

Variants of: B1
Test: GST pull-down, SDS-PAGE band quantification; parent: 0.15; read off a plot

| response | Variant |
| --- | --- |
| ~0.017 molar ratio | chain 1 G350D, chain 1 G401A, chain 1 P402A, chain 1 R403A, chain 1 P404A |
| ~0.084 molar ratio | chain 1 A395D |
| ~0.16 molar ratio | chain 1 S600D |
| ~0.064 molar ratio | chain 1 G401A, chain 1 P402A, chain 1 R403A, chain 1 P404A |
| ~0.19 molar ratio | chain 1 S579D |
| ~0.01 molar ratio | chain 1 G350D, chain 1 A395D |
| ~0.012 molar ratio | chain 1 A395D, chain 1 G401A, chain 1 P402A, chain 1 R403A, chain 1 P404A |
| ~0.089 molar ratio | chain 1 G350D |
